Experimental findings from patent US6426070 are described below.

Series [1] has as its target recombinant human eosinophil cationic protein (rhECP), baculovirus-derived, C-terminal FLAG (human) (UniProt P12724). The series is described as follows: cell-based or functional assay.
Series [2] has as its target T1, placental ribonuclease inhibitor (RI), P13489.
T1 chain: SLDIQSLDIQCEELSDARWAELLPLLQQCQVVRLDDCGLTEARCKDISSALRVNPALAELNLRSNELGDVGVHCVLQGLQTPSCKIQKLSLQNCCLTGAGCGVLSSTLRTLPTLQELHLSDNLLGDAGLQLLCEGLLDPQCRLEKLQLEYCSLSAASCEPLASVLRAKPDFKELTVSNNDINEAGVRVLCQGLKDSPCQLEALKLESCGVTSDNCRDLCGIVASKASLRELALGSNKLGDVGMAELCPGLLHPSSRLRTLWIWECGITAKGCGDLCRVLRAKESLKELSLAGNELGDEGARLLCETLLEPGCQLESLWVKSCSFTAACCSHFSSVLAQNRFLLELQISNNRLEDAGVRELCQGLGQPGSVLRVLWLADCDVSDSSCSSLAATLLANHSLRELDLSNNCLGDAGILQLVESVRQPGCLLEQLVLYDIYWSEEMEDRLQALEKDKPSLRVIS

For “placental ribonuclease inhibitor (RI) (from UniProt P13489 2-461)”, in series [1], the infectious units/ml RSV-B after 500 nM rhECP + 400U RI (500 nM rhECP alone: 660 +/- 28) (infectious units/ml) came out at 1690.

B1: recombinant human eosinophil cationic protein (rhECP), baculovirus-derived, C-terminal FLAG (protein)
chain: RPPQFTRAQWFAIQHISLNPPRCTIAMRAINNYRWRCKNQNTFLRTTFANVVNVCGNQSIRCPHNRTLNNCHRSRFRVPLLHCDLINPGAQNISNCTYADRPGRRFYVVACDNRDPRDSPRYPVVPVHLDTTIDYKDDDDK
B1: the “ribonuclease activity (pmol/min) at fixed enzyme (rhECP) and substrate (tRNA) concentrations with increasing concentrations of RI” value in series [2] is on record as “These results demonstrate that rhECP is sensitive to the inhibitory effects of RI”.
